According to patent publication US20170360796A1, “BTK INHIBITOR COMBINATIONS AND DOSING REGIMEN” (PHARMACYCLICS LLC, priority 2014, published 2017):

What was measured:
[1] = tested on: patients with relapsed/refractory CLL and related diseases; assay: Phase 1b/2 study of ibrutinib combined with ofatumumab (NCT01217749): efficacy; type: in vivo, human; settings: group 3, ofatumumab lead-in before initiating ibrutinib
Source text: Key eligibility criteria also included failure of ≧2 prior therapies including a nucleoside analogue (unless contraindicated); ≧10% expression of CD20 on CLL/SLL cells by flow cytometry; ECOG performance status ≦2; and adequate end-organ function.
This phase 1 b/2, single-center, open-label, sequential-group study was approved by the institutional review board and conducted in accordance with the principles of the Declaration of Helsinki and the International Conference on Harmonization Guidelines for Good Clinical Practice.

[2] = tested on: patients with relapsed/refractory CLL; settings: single agent; cited from earlier work
[3] = tested on: B-cell lines including CLL cells; settings: compared with rituximab; cited from earlier work

## ofatumumab: anti-CD20 monoclonal antibody that binds to an epitope distinct from that for rituximab
[1]
  patients who progressed (PD) on ofatumumab monotherapy: 17%
[2]
  Major bleeding events ≧ grade 3: 1.6%
  peripheral sensory neuropathy (grade 1 and 2): 13%
[3]
  complement-dependent cytotoxicity and NK-cell ADCC: more potent
